Positions count from the first letter of the chain named. Numbers in names are those of the source.

T1: rat α-CGRP (Rattus norvegicus, UniProt P01256)
T1 construct: rat α (1-37); host or cells: synthetic peptide
T1 sequence (P01256 83-119 limits assumed): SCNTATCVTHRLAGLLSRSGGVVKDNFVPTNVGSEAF

T2: human α-CGRP (Homo sapiens, UniProt P06881)
T2 construct: 1-37 (WT); purchased; host or cells: synthetic peptide
T2 sequence (P06881 83-119 limits assumed): T1 sequence (P01256 83-119 limits assumed) with S1A, N3D, D25N, E35K

B1: M67: G1 variant: L1 R28N,T30G; L2 L56I; H2 E54K,A57F; HC-FW3 L99T,A100V (antibody, V domains shown)
VH: EVQLVESGGGLVQPGGSLRLSCAASGFTFSNYWISWVRQAPGKGLEWVAEIRSKSDFSATHYAEAVKGRFTISRDNAKNSLYLQMNSLRAEDTAVYYCTVYFDYGLAIQNYWGQGTLVTVSS
VL: EIVLTQSPATLSLSPGERATLSCKASKNVGTYVSWYQQKPGQAPRLLIYGASNRYIGIPARFSGSGSGTDFTLTISSLEPEDFAVYYCSQSYNYPYTFGQGTKLEIK
B2: M69: G1 variant: L1 R28N,T30G; L2 L56I; H2 E54K,A57N,S58E; HC-FW3 L99T,A100V (antibody, V domains shown)
VH: B1 VH with F57N, S58E
VL: B1 VL
B3: M77: G1 variant: L1 R28N,T30S; L2 G50A,L56T; H2 E54K,A57D; HC-FW3 L99T,A100V (antibody, V domains shown)
VH: B1 VH with F57D
VL: B1 VL with G30S, G50A, I56T
B4: M68: G1 variant: L1 R28N,T30G; L2 L56I; H2 E54K,A57N,S58D,E64D; HC-FW3 L99T,A100V (antibody, V domains shown)
VH: B1 VH with F57N, S58D, E64D
VL: B1 VL
B5: M76: G1 variant: L1 R28N,T30S; L2 G50A,L56T; H2 A57G; HC-FW3 L99T,A100V (antibody, V domains shown)
VH: B1 VH with K54E, F57G
VL: B1 VL with G30S, G50A, I56T
B6: M20: G1 variant: L1 R28W; HC-FW3 L99R,A100L (antibody, V domains shown)
VH: B1 VH with K54E, F57A, T99R, V100L
VL: B1 VL with N28W, G30T, I56L
B7: M70: G1 variant: L1 R28N,T30G; L2 L56I; H2 E54K,A57S; HC-FW3 L99T,A100V (antibody, V domains shown)
VH: B1 VH with F57S
VL: B1 VL
B8: M74: G1 variant: L1 R28N,T30G; L2 L56S; H2 E54K,A57S; HC-FW3 L99T,A100V (antibody, V domains shown)
VH: B1 VH with F57S
VL: B1 VL with I56S
B9: M71: G1 variant: L1 R28N,T30G; L2 L56I; H2 E54K,A57Y; HC-FW3 L99T,A100V (antibody, V domains shown)
VH: B1 VH with F57Y
VL: B1 VL
B10: M82: G1 variant: L1 R28N,T30V; L2 A51H,L56T; H2 A57N; HC-FW3 L991 (printed),A100V (antibody, V domains shown)
VH: B1 VH with K54E, F57N
VL: B1 VL with G30V, A51H, I56T
B11: M75: G1 variant: L1 R28N,T30G; L2 L56S; H2 E54K,A57V; HC-FW3 L99T,A100V (antibody, V domains shown)
VH: B1 VH with F57V
VL: B1 VL with I56S
B12: M83: G1 variant: L1 R28N,T30V; L2 A51H,L56T; H2 E54K,A57N,S58M,H61F; HC-FW3 L991 (printed),A100V (antibody, V domains shown)
VH: B1 VH with F57N, S58M, H61F
VL: B1 VL with G30V, A51H, I56T
B13: M22: G1 variant: L1 R28W; HC-FW3 L99T (antibody, V domains shown)
VH: B1 VH with K54E, F57A, V100A
VL: B1 VL with N28W, G30T, I56L
B14: M73: G1 variant: L1 R28N,T30G; L2 L56S; H2 E54K,A57N,S58Y,E64D; HC-FW3 L99T,A100V (antibody, V domains shown)
VH: B1 VH with F57N, S58Y, E64D
VL: B1 VL with I56S
B15: M72: G1 variant: L1 R28N,T30G; L2 L56S; H2 E54K; HC-FW3 L99T,A100V (antibody, V domains shown)
VH: B1 VH with F57A
VL: B1 VL with I56S
B16: M79: G1 variant: L1 R28N,T30S; L2 G50A,L56T; H2 E54K,A57P; HC-FW3 L99T,A100V (antibody, V domains shown)
VH: B1 VH with F57P
VL: B1 VL with G30S, G50A, I56T
B17: M84: G1 variant: L1 R28N,T30V; L2 A51H,L56T; H2 E54N,A57N; HC-FW3 L991 (printed),A100V (antibody, V domains shown)
VH: B1 VH with K54N, F57N
VL: B1 VL with G30V, A51H, I56T
B18: M80: G1 variant: L1 R28N,T30S; L2 L56I; H2 E54K,A57N,S58V; HC-FW3 L99T,A100V (antibody, V domains shown)
VH: B1 VH with F57N, S58V
VL: B1 VL with G30S
B19: M21: G1 variant: L1 R28W; HC-FW3 L99S (antibody, V domains shown)
VH: B1 VH with K54E, F57A, T99S, V100A
VL: B1 VL with N28W, G30T, I56L
B20: M81: G1 variant: L1 R28N,T30S; L2 L56S; H2 E54K,A57N,S58E; HC-FW3 L99T,A100V (antibody, V domains shown)
VH: B1 VH with F57N, S58E
VL: B1 VL with G30S, I56S
B21: M78: G1 variant: L1 R28N,T30S; L2 G50A,L56T; H2 E54K,A57N,S58T; HC-FW3 L99T,A100V (antibody, V domains shown)
VH: B1 VH with F57N, S58T
VL: B1 VL with G30S, G50A, I56T

One assay addresses T1, rat α-CGRP. The assay can be described thus: Biacore affinity of antibody G1 Fab and variants to rat α-CGRP. Format: binding. As to conditions: 37° C., Fab, screening mode unless underlined. The protocol:
(§1) Biacore assay for affinity determination. […] All Biacore assays were conducted in HBS-EP running buffer (10 mM HEPES pH 7.4, 150 mM NaCl, 3 mM EDTA, 0.005% v/v polysorbate P20). CGRP surfaces were prepared by diluting the N-biotinylated CGRP to a concentration of less than 0.001 mg/mL into HBS-EP buffer and injecting it across the SA sensor chip using variable contact times. Low capacity surfaces, corresponding to capture levels <50 response units (RU) were used for high-resolution kinetic studies, whereas high capacity surfaces (about 800 RU of captured CGRP) were used for concentration studies, screening, and solution affinity determinations. […] Samples were typically injected for lminute at 100 μL/min and dissociation times of at least 10 minutes were allowed. After each binding cycle, surfaces were regenerated with 25 mM NaOH in 25% v/v ethanol, which was tolerated over hundreds of cycles. An entire titration series (typically generated in duplicate) was fit globally to a 1:1 Langmuir binding model using the BlAevaluation program. This returned a unique pair of association and dissociation kinetic rate constants (respectively, kon and koff) for each binding interaction, whose ratio gave the equilibrium dissociation constant (KD=koff/[…]).
(§2) High-resolution analysis of binding interactions with extremely slow offrates. […] The protocol described above was used with the following modifications. The association rate constant (kon) was determined by injecting a 2-fold titration series (in duplicate) spanning 550 nM-1 nM for 30 seconds at 100 μL/min and allowing only a 30 second dissociation phase. The dissociation rate constant (koff) was determined by injecting three concentrations (high, medium, and low) of the same titration series in duplicate for 30 seconds and allowing a 2-hour dissociation phase. The affinity (KD) of each interaction was obtained by combining the kon and koff values obtained in both types of experiments, as shown in Table 4.
(§3) The binding affinities of Fab fragments were determined by Biacore by flowing them across CGRPs on a SA chip.
(In general: Surface plasmon resonance follows binding to a sensor surface in real time, without labels.)
B1 registered a α-rat koff of 0.00171 s⁻¹.
On to B2, for which the α-rat koff is 0.00181 s⁻¹.
On the same count and under the same terms, under B3 stands 0.0143 s⁻¹; under B4, 0.00676 s⁻¹; under B5, 0.00116 s⁻¹.
On the same count and under the same terms, under B6 stands 0.00144 s⁻¹; under B7, 0.00607 s⁻¹; under B8, 0.00603 s⁻¹.
In turn, B9 came in with a α-rat koff of 0.00212 s⁻¹.
Still for that read-out and setting: the same measure for B10: 0.00699 s⁻¹.
B11 had a α-rat koff of 0.0187 s⁻¹.
B12: the α-rat koff entry was “No binding”.
Still for that read-out and setting: under B13 stands 0.0011 s⁻¹; under B14, 0.003 s⁻¹.
For B15, the α-rat koff was found to be 0.00395 s⁻¹.
On the same count and under the same terms, the same measure for B16: 0.19 s⁻¹; for B17: 0.0176 s⁻¹.
Same read-out and setting: under B18 stands 0.0993 s⁻¹.
On the same count and under the same terms, the same measure for B19: 0.000695 s⁻¹; for B20: 0.00429 s⁻¹.
B21 gave a α-rat koff of 0.167 s⁻¹.

Another assay concerns the target T2, human α-CGRP. The assay can be described thus: Biacore affinity of antibody G1 Fab and variants to human α-CGRP. Format: binding. The following applies: 37° C., Fab, screening mode unless underlined. How it is done: as §1, §2, §3
As for B1, the α-human koff was determined as 0.00082 s⁻¹.
The molecule B2 gave a α-human koff of 0.000733 s⁻¹.
Still for that read-out and setting: under B3 stands 0.000477 s⁻¹; under B4, 0.000428 s⁻¹; under B5, 0.000364 s⁻¹.
The same measure, in the same setting: under B6 stands 0.000136 s⁻¹; under B7, 0.000559 s⁻¹.
On the same count and under the same terms, the same measure for B8: 0.000597 s⁻¹.
In turn, B9 returned a α-human koff of 0.00128 s⁻¹.
Same read-out and setting: under B10 stands 0.000877 s⁻¹; under B11, 0.00116 s⁻¹.
The same measure, in the same setting: the same measure for B12: 0.000933 s⁻¹.
As to B13, the α-human koff is 0.000116 s⁻¹.
On the same count and under the same terms, under B14 stands 0.000255 s⁻¹; under B15, 0.0004 s⁻¹; under B16, 0.00129 s⁻¹.
Same read-out and setting: under B17 stands 0.00108 s⁻¹.
Still for that read-out and setting: the same measure for B18: 0.00209 s⁻¹; for B19: 0.000142 s⁻¹; for B20: 0.00049 s⁻¹.
As for B21, the α-human koff stood at 0.00131 s⁻¹.

These data come from patent US10766952B2, “Methods for reducing migraine frequency in a subject in need thereof” (Beth Israel Deaconess Medical Center, Inc., priority 2017, dated 2020).
